Assay results from patent publication US20230265151A1, “GIP/GLP1 CO-AGONIST COMPOUNDS” (priority 2020, published 2023).

T1: human GIP receptor (human, UniProt P48546 22-466)
T1 sequence (looked up): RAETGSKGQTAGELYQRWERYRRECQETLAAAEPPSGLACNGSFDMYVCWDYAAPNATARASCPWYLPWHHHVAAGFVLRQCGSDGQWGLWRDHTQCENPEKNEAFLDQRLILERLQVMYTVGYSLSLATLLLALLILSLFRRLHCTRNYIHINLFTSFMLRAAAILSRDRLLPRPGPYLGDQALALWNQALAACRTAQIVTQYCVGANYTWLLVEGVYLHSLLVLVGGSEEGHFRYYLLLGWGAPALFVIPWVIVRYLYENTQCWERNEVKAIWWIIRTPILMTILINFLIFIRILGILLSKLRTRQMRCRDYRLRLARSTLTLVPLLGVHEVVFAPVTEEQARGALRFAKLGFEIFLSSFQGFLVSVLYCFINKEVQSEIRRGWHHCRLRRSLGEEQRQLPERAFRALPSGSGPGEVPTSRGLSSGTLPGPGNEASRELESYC


How the values were obtained:
Experiment in all cases: cell-based or functional assay
[1] = biological target: human glucagon receptor (human, UniProt P47871 26-477)
[2] = biological target: human GLP-1 receptor (human, UniProt P43220 24-463)
[3] = biological target: T1, human GIP receptor

Binder	EC50, cAMP [1] [nM]	EC50, cAMP [2] [nM]	EC50, cAMP [3] [nM]	Emax, cAMP [3] [%]	Emax, cAMP [2] [%]
YXEGTXTSDXSIXLDXKAQXEFIXXLIEGGKSSGAPPPS (Aib2, αMeF(2F)6, 4Pal10, αMeL13, Orn16, Aib20, D-Glu24, αMeY25, K17 and K31: K((εK)-AEEA2-(γ-Glu)-CO-(CH2)12-CO2H), C-terminal NH2) [Example 37]	> 9950	0.909	0.0211	–	–
YXEGTXTSDXSIXLDXKAQXEFIXXLIEGGKSSGAPPPS (Aib2, αMeF6, 4Pal10, αMeF13, Orn16, Aib20, D-Glu24, αMeY25, K17 and K31: K(AEEA2-(γ-Glu)-CO-(CH2)12-CO2H), C-terminal NH2) [Example 46]	> 9950	3.29	0.0801	89.5	–
YXEGTXTSDXSIXLDXKAQXEFIXXLIEGGKSSGAPPPS (Aib2, αMeF(2F)6, 4Pal10, αMeL13, Orn16, Aib20, D-Glu24, αMeY25, K17 and K31: K(AEEA2-(γ-Glu)-CO-(CH2)14-CH3), C-terminal NH2) [Example 7]	> 9950	0.00676	0.00327	–	–
YXEGTXTSDYXIXLDXKAQXEFIXXLIEGGKSSGAPPPS (Aib2, αMeF(2F)6, Aib11, αMeL13, Orn16, Aib20, D-Glu24, αMeY25, K17 and K31: K(AEEA2-(γ-Glu)-CO-(CH2)12-CO2H), C-terminal NH2) [Example 50]	> 9950	0.273	0.0168	94.7	–
YXEGTXTSDXSIXLDXKAQXEFIXXLIEGGKSSGAPPPS (Aib2, αMeF(2F)6, 4Pal10, αMeL13, Orn16, Aib20, D-Glu24, αMeY25, K17 and K31: K(AEEA2-(γ-Glu)-(4-(4-iodophenyl)butanoyl)), C-terminal NH2) [Example 3]	> 9950	0.223	0.0133	–	–
YXEGTXTSDXSIXLDXKAQXEFIXXLIEGGKSSGAPPPS (Aib2, αMeF(2F)6, hTyr10, αMeL13, Orn16, Aib20, D-Glu24, αMeY25, K17 and K31: K(AEEA2-(γ-Glu)-CO-(CH2)12-CO2H), C-terminal NH2) [Example 59]	> 9950	0.202	0.024	89.2	–
YXEGTXTSDXSIXLDXKAQXEFIXXLIEGGKSSGAPPPS (Aib2, αMeF(2F)6, 1Nal10, αMeL13, Orn16, Aib20, D-Glu24, αMeY25, K17 and K31: K(AEEA2-(γ-Glu)-CO-(CH2)12-CO2H), C-terminal NH2) [Example 56]	> 9950	0.205	0.0138	90.3	–
YXEGTXTSDXSIXLDXKAQXEFIXXLIEGGKSSGAPPPS (Aib2, αMeF(2F)6, 4Pal10, αMeL13, Orn16, Aib20, D-Glu24, αMeY25, K17 and K31: K((εK)-(εK)-(γ-Glu)-CO-(CH2)12-CO2H), C-terminal NH2) [Example 40]	> 9950	0.279	0.0116	–	–
YXEGTXTSDXSIXLDXKAQXEFIXXLIEGGKSSGAPPPS (Aib2, αMeF(2F)6, 4Pal10, αMeL13, Orn16, Aib20, D-Glu24, αMeY25, K17 and K31: K(AEEA-(γ-Glu)-AEEA-CO-(CH2)12-CO2H), C-terminal NH2) [Example 43]	> 9950	0.821	0.0123	–	–
YXEGTXTSDXSIXLDXKAQXEXIXXLIEGGKSSGAPPPS (Aib2, αMeF(2F)6, 4Pal10, αMeL13, Orn16, Aib20, 3,5FPhe22, D-Glu24, αMeY25, K17 and K31: K(AEEA2-(γ-Glu)-CO-(CH2)12-CO2H), C-terminal NH2) [Example 65]	> 9950	0.3	0.0139	–	–
YXEGTXTSDXSIXLDXKAQXEXIXXLIEGGKSSGAPPPS (Aib2, αMeF(2F)6, 4Pal10, αMeL13, Orn16, Aib20, 2ClPhe22, D-Glu24, αMeY25, K17 and K31: K(AEEA2-(γ-Glu)-CO-(CH2)12-CO2H), C-terminal NH2) [Example 61]	> 9950	1.35	0.012	–	82.9
YXEGTXTSDYXIXLDXKAQXEFIXXLIEGGKSSGAPPPS (Aib2, αMeF(2F)6, αMeS11, αMeL13, Orn16, Aib20, D-Glu24, αMeY25, K17 and K31: K(AEEA2-(γ-Glu)-CO-(CH2)12-CO2H), C-terminal NH2) [Example 49]	> 9950	0.398	0.0205	91	97.3
YXEGTXTSDXSIXLDXKAQXEXIXXLIEGGKSSGAPPPS (Aib2, αMeF(2F)6, 4Pal10, αMeL13, Orn16, Aib20, 1Nal22, D-Glu24, αMeY25, K17 and K31: K(AEEA2-(γ-Glu)-CO-(CH2)12-CO2H), C-terminal NH2) [Example 66]	> 9950	0.355	0.0168	–	–
YXEGTXTSDXSIXLDXKAQXEXIXXLIEGGKSSGAPPPS (Aib2, αMeF6, 4Pal10, αMeL13, Orn16, Aib20, αMeF22, D-Glu24, αMeY25, K17 and K31: K(AEEA2-(γ-Glu)-CO-(CH2)12-CO2H), C-terminal NH2) [Example 47]	> 9950	1.94	0.0138	–	87.1
YXEGTXTSDXSIXLDXKAQXEFIXXLIEGGKSSGAPPPS (Aib2, αMeF(2F)6, 4Pal10, αMeL13, Orn16, Aib20, D-Glu24, αMeY25, K17 and K31: K((εK)-(γ-Glu)-(γ-Glu)-CO-(CH2)12-CO2H), C-terminal NH2) [Example 39]	> 9950	0.358	0.0238	–	–
YXEGTXTSDXSIXLDXKAQXEFIXXLIEGGKSSGAPPPS (Aib2, αMeF(2F)6, 4Pal10, αMeL13, Orn16, Aib20, D-Glu24, αMeY25, K17 and K31: K((εK)-(γ-Glu)-CO-(CH2)12-CO2H), C-terminal NH2) [Example 38]	> 9950	0.225	0.0155	–	–
YXEGTXTSDXSIXLDXKAQXEFIXXLIEGGKSSGAPPPS (Aib2, αMeF(2F)6, αMeL10, αMeL13, Orn16, Aib20, D-Glu24, αMeY25, K17 and K31: K(AEEA2-(γ-Glu)-CO-(CH2)12-CO2H), C-terminal NH2) [Example 51]	> 9950	0.89	0.11	–	–

Binder	EC50, cAMP [1] [nM]	EC50, cAMP [2] [nM]	EC50, cAMP [3] [nM]	Emax, cAMP [3] [%]	Emax, cAMP [2] [%]
YXEGTXTSDXSIXLDXKAQXEFIXXLIEGGKSSGAPPPS (Aib2, αMeF(2F)6, 4Pal10, αMeL13, Orn16, Aib20, D-Glu24, αMeY25, K17 and K31: K((γ-Glu)-AEEA-CO-(CH2)12-CO2H), C-terminal NH2) [Example 42]	> 9950	0.429	0.0103	–	–
YXEGTXTSDXSIXLDXKAQXEFIXXLIEGGKSSGAPPPS (Aib2, αMeF(2F)6, OMeY10, αMeL13, Orn16, Aib20, D-Glu24, αMeY25, K17 and K31: K(AEEA2-(γ-Glu)-CO-(CH2)12-CO2H), C-terminal NH2) [Example 58]	> 9950	0.194	0.0158	89.2	–
YXEGTXTSDXSIXLDXKAQXEFIXXLIEGGKSSGAPPPS (Aib2, αMeF(2F)6, Ac5c10, αMeL13, Orn16, Aib20, D-Glu24, αMeY25, K17 and K31: K(AEEA2-(γ-Glu)-CO-(CH2)12-CO2H), C-terminal NH2) [Example 53]	> 9950	0.18	0.0841	–	–
YXEGTXTSDXSIXLDXKAQXEXIXXLIEGGKSSGAPPPS (Aib2, αMeF(2F)6, 4Pal10, αMeL13, Orn16, Aib20, 2FPhe22, D-Glu24, αMeY25, K17 and K31: K(AEEA2-(γ-Glu)-CO-(CH2)12-CO2H), C-terminal NH2) [Example 63]	> 9950	1.86	0.0176	–	90.6
YXEGTXTSDXSIXLDXKAQXEFIXXLIEGGKSSGAPPPS (Aib2, αMeF(2F)6, αMeV10, αMeL13, Orn16, Aib20, D-Glu24, αMeY25, K17 and K31: K(AEEA2-(γ-Glu)-CO-(CH2)12-CO2H), C-terminal NH2) [Example 52]	> 9950	0.384	0.258	–	–
YXEGTXTSDXSIXLDXKAQXEFIXXLIEGGKSSGAPPPS (Aib2, αMeF6, 4Pal10, αMeL13, Orn16, Aib20, D-Glu24, αMeY25, K17 and K31: K(AEEA2-(γ-Glu)-CO-(CH2)12-CO2H), C-terminal NH2) [Example 44]	> 9950	4.77	0.0637	–	–
YXEGTXTSDXSIXLDXKAQXEFIXXLIEGGKSSGAPPPS (Aib2, αMeF6, αMeF10, αMeL13, Orn16, Aib20, D-Glu24, αMeY25, K17 and K31: K(AEEA2-(γ-Glu)-CO-(CH2)12-CO2H), C-terminal NH2) [Example 45]	> 9950	9.18	0.0517	–	–
YXEGTXTSDXSIXLDXKAQXEFIXXLIEGGKSSGAPPPS (Aib2, αMeF(2F)6, 2Nal10, αMeL13, Orn16, Aib20, D-Glu24, αMeY25, K17 and K31: K(AEEA2-(γ-Glu)-CO-(CH2)12-CO2H), C-terminal NH2) [Example 57]	> 9950	0.14	0.0135	–	–
YXEGTXTSDXSIXLDXKAQXEFIXXLIEGGKSSGAPPPS (Aib2, αMeF(2F)6, 4Pal10, αMeL13, Orn16, Aib20, D-Glu24, αMeY25, K17 and K31: K((γ-Glu)-AEEA2-CO-(CH2)12-CO2H), C-terminal NH2) [Example 41]	> 9950	0.691	0.0108	–	–
YXEGTXTSDXSIXLDXKAQXEFIXXLIEGGKSSGAPPPS (Aib2, αMeF(2F)6, Bip10, αMeL13, Orn16, Aib20, D-Glu24, αMeY25, K17 and K31: K(AEEA2-(γ-Glu)-CO-(CH2)12-CO2H), C-terminal NH2) [Example 55]	> 9950	0.154	0.0207	–	–
YXEGTXTSDXSIXLDXKAQXEFIXXLIEGGKSSGAPPPS (Aib2, αMeF(2F)6, 4Pal10, αMeL13, Orn16, Aib20, D-Glu24, αMeY25, K17 and K31: K(AEEA2-(γ-Glu)-(4-(4-tert-butylphenyl)butanoyl)), C-terminal NH2) [Example 4]	> 9950	0.137	0.00962	–	–
YXEGTXTSDXSIXLDXKAQXEFIXXLIEGGKSSGAPPPS (Aib2, αMeF(2F)6, Nle10, αMeL13, Orn16, Aib20, D-Glu24, αMeY25, K17 and K31: K(AEEA2-(γ-Glu)-CO-(CH2)12-CO2H), C-terminal NH2) [Example 60]	> 9950	0.19	0.0126	–	–
YXEGTXTSDXSIXLDXKAQXEXIXXLIEGGKSSGAPPPS (Aib2, αMeF(2F)6, 4Pal10, αMeL13, Orn16, Aib20, 3FPhe22, D-Glu24, αMeY25, K17 and K31: K(AEEA2-(γ-Glu)-CO-(CH2)12-CO2H), C-terminal NH2) [Example 64]	> 9950	0.557	0.0158	–	97.3
YXEGTXTSDXSIXLDXKAQXEFIXXLIEGGKSSGAPPPS (Aib2, αMeF6, 4Pal10, αMeL13, Orn16, Aib20, D-Glu24, αMeF25, K17 and K31: K(AEEA2-(γ-Glu)-CO-(CH2)12-CO2H), C-terminal NH2) [Example 48]	> 9950	1	0.0182	–	–
YXEGTXTSDXSIXLDXKAQXEFIXXLIEGGKSSGAPPPS (Aib2, αMeF(2F)6, Ac6c10, αMeL13, Orn16, Aib20, D-Glu24, αMeY25, K17 and K31: K(AEEA2-(γ-Glu)-CO-(CH2)12-CO2H), C-terminal NH2) [Example 54]	> 9950	0.538	0.0675	113	–
YXEGTXTSDXSIXLDXKAQXEXIXXLIEGGKSSGAPPPS (Aib2, αMeF(2F)6, 4Pal10, αMeL13, Orn16, Aib20, 3ClPhe22, D-Glu24, αMeY25, K17 and K31: K(AEEA2-(γ-Glu)-CO-(CH2)12-CO2H), C-terminal NH2) [Example 62]	> 9950	0.48	0.0211	–	99.4
